The values below come from patent publication US20200038523A1 (TECHNISCHE UNIVERSIT T M NCHEN, published 2020).

What is called EC50 (read off the curve) is the concentration needed to bring the measured effect to its halfway point. A lower EC50 (read off the curve) goes with greater potency.

The target in the assay is T1, rhPSMA, extracellular part of human prostate-specific membrane antigen (residues 44-750) with native … (human, UniProt Q04609 44-750).
T1 construct: range 44-750; Secreted from Schneider S2 insect cells, glycosylated; also called wild-type rhPSMA; rhGCPII
T1 sequence (Q04609 44-750 limits assumed): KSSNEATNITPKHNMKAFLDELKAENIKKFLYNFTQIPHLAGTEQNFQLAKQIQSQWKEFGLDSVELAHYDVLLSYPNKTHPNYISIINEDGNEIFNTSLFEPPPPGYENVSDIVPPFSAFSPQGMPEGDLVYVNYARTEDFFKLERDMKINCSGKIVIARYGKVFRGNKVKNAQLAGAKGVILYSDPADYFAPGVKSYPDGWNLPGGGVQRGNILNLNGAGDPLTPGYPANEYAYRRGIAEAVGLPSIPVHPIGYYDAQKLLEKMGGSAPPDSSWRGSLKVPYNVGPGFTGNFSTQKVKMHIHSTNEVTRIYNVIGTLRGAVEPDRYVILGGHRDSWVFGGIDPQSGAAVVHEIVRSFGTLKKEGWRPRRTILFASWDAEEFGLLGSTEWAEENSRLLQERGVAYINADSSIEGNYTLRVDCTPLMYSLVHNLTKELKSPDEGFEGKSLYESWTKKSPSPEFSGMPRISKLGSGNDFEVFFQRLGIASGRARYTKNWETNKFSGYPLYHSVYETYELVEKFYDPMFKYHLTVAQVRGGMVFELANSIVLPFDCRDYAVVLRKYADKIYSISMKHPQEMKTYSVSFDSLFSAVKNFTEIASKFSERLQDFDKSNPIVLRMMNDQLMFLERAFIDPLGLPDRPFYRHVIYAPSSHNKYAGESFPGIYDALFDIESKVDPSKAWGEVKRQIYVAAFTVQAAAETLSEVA
Briefly: ELISA: rhPSMA coated on MaxiSorp plate, Anticalin dilution series, detection via Strep-tag II with StrepTactin/AP, absorbance at 405 nm. The source says: Binding activities of Anticalins selected from the original nave library (A) or resulting from subsequent affinity maturation of the A3 variant (B) were compared in an ELISA. A 96-well MaxiSorp plate was coated with rhPSMA (or ovalbumin as a negative control, not shown) and purified Anticalin variants were applied in dilution series. Anticalin binding was detected using StrepTactin/AP conjugate, followed by chromogenic reaction. Absorption was plotted against the Anticalin concentration and data were analyzed by curve fitting. Binding curves for the best performing clones A3 and A3A5 are shown as solid lines. (CE) SPR sensograms measured for Anticalins A3, A3A5 and A3A5.1 on a BIAcore 2000 instrument. […]
50 μL of rhPSMA (5 μg/mL in TBS) was directly adsorbed onto the surface of a MaxiSorp 96-well plate overnight at 4° C. […] The plates were washed three times and bound Anticalins were detected with StrepTactin-AP as described further above. The data were analyzed using Prism 5 software (GraphPad) and absorption values (A) were fitted according to the formula ΔA=Aₘₐₓ[Lₜₒₜ]/(KD+[Lₜₒₜ]) with the concentration of the applied lipocalin variant [Lₜₒₜ] and the dissociation constant KD.
Specific binding activities of selected Anticalins toward rhPSMA as well as apparent affinity constants were initially determined by ELISA in 96-well Maxisorp plates coated with the recombinant wild-type PSMA protein. […]
On the technique in general: ELISA stands for enzyme-linked immunosorbent assay.

B1: Anticalin candidate H5 (designed binder)
chain: QDSTSDLIPAPPLSKVPLQQNFQDNQFHGKWYVVGTAGNWPLREDKDPHKMSATIYELKEDKSYNVTNVQFSSKKCLYFIGTFVPGSQPGEFTLGPIKSAPGQTSGLVRVVSTNYNQHAMVFFKQVIQNREAFIITLYGRTKELTSELKENFIRFSKSLGLPENHIVFPVPIDQCIDG
notes: not shown: C-terminal Strep-tag II
B1: the “EC50 (read off the curve)” value is approximately 6 nM.

B2: Anticalin candidate A2 (designed binder)
chain: QDSTSDLIPAPPLSKVPLQQNFQDNQFHGKWYVVGRAGNKPLREDKDPLKMWATIYELKEDKSYNVTIVWFDFKKCWYRISTFVPGSQPGEFTLGRIKSAPGVTSGLVRVVSTNYNQHAMVFFKYVFQNREWFHITLYGRTKELTSELKENFIRFSKSLGLPENHIVFPVPIDQCIDG
notes: as for B1
Take B2: the “EC50 (read off the curve)” value is approximately 10 nM.
